B1: Endogenous Robo1 of mouse small intestinal crypts (receptor, UniProt O89026 20-1612, looked up)
chain: SRLRQEDFPPRIVEHPSDLIVSKGEPATLNCKAEGRPTPTIEWYKGGERVETDKDDPRSHRMLLPSGSLFFLRIVHGRKSRPDEGVYICVARNYLGEAVSHNASLEVAILRDDFRQNPSDVMVAVGEPAVMECQPPRGHPEPTISWKKDGSPLDDKDERITIRGGKLMITYTRKSDAGKYVCVGTNMVGERESEVAELTVLERPSFVKRPSNLAVTVDDSAEFKCEARGDPVPTVRWRKDDGELPKSRYEIRDDHTLKIRKVTAGDMGSYTCVAENMVGKAEASATLTVQEPPHFVVKPRDQVVALGRTVTFQCEATGNPQPAIFWRREGSQNLLFSYQPPQSSSRFSVSQTGDLTITNVQRSDVGYYICQTLNVAGSIITKAYLEVTDVIADRPPPVIRQGPVNQTVAVDGTLILSCVATGSPAPTILWRKDGVLVSTQDSRIKQLESGVLQIRYAKLGDTGRYTCTASTPSGEATWSAYIEVQEFGVPVQPPRPTDPNLIPSAPSKPEVTDVSKNTVTLSWQPNLNSGATPTSYIIEAFSHASGSSWQTAAENVKTETFAIKGLKPNAIYLFLVRAANAYGISDPSQISDPVKTQDVPPTSQGVDHKQVQRELGNVVLHLHNPTILSSSSVEVHWTVDQQSQYIQGYKILYRPSGASHGESEWLVFEVRTPTKNSVVIPDLRKGVNYEIKARPFFNEFQGADSEIKFAKTLEEAPSAPPRSVTVSKNDGNGTAILVTWQPPPEDTQNGMVQEYKVWCLGNETKYHINKTVDGSTFSVVIPSLVPGIRYSVEVAASTGAGPGVKSEPQFIQLDSHGNPVSPEDQVSLAQQISDVVRQPAFIAGIGAACWIILMVFSIWLYRHRKKRNGLTSTYAGIRKVPSFTFTPTVTYQRGGEAVSSGGRPGLLNISEPATQPWLADTWPNTGNNHNDCSINCCTAGNGNSDSNLTTYSRPADCIANYNNQLDNKQTNLMLPESTVYGDVDLSNKINEMKTFNSPNLKDGRFVNPSGQPTPYATTQLIQANLSNNMNNGAGDSSEKHWKPPGQQKPEVAPIQYNIMEQNKLNKDYRANDTIPPTIPYNQSYDQNTGGSYNSSDRGSSTSGSQGHKKGARTPKAPKQGGMNWADLLPPPPAHPPPHSNSEEYNMSVDESYDQEMPCPVPPAPMYLQQDELQEEEDERGPTPPVRGAASSPAAVSYSHQSTATLTPSPQEELQPMLQDCPEDLGHMPHPPDRRRQPVSPPPPPRPISPPHTYGYISGPLVSDMDTDAPEEEEDEADMEVAKMQTRRLLLRGLEQTPASSVGDLESSVTGSMINGWGSASEEDNISSGRSSVSSSDGSFFTDADFAQAVAAAAEYAGLKVARRQMQDAAGRRHFHASQCPRPTSPVSTDSNMSAVVIQKARPAKKQKHQPGHLRREAYADDLPPPPVPPPAIKSPTVQSKAQLEVRPVMVPKLASIEARTDRSSDRKGGSYKGREALDGRQVTDLRTNPSDPREAQEQPNDGKGRGTRQPKRDLPPAKTHLGQEDILPYCRPTFPTSNNPRDPSSSSSMSSRGSGSRQREQANVGRRNMAEMQVLGGFERGDENNEELEETES
notes: also called native Robo1

Legend:
[1] = target: T1, Native LRP6 of mouse small intestinal crypts (mouse, UniProt O88572 20-1613); assay: immunoprecipitation of endogenous Robo1 from crypt lysates of C57 small intestines, immunoblot (FIG. 15H)
T1 construct: also called endogenous LRP6; endogenous Lrp6

[2] = target: T2, Recombinant human Rspo1 fused with 6-His (His) tag expressed in Sf9 insect cells (human, UniProt Q2MKA7 21-263); assay: glutathione-Sepharose pulldown, immunoblot
T2 construct: Baculovirus expression; also called rRspo1; R-spondin 1; not shown: 6-His tag
Protocol: (§1) To confirm our initial findings, various deletion mutants of Robo1 fused with hemagglutin (HA) tag were employed (FIG. 15B) (see, e.g., Wong, K., et al., (2001) Cell 107, 209-221). Recombinant human Rspo1 fused with 6-His (His) tag expressed in Sf9 insect cells (rRspo1; FIG. 15C and FIG. 17B) were also purified. […] Following incubation, immunoprecipitation was performed by the anti-HA Ab, followed by immunoblotting with the Abs for rRspo1 (His) and Robo1 (HA). […] Compared to human IgG (hIgG) bound Protein A (Pro-A) beads, recombinant Robo1-Fc chimera (rRobo1-Fc; FIG. 17C) bound Pro-A beads precipitated rRspo1 (His; FIG. 15E and FIG. 16C). Additionally, rRobo1-Fc bound Pro-A beads precipitated purified recombinant Rspo1-N (rRspo1-N), but not recombinant Rspo1-C (rRspo1-C; FIGS. 15C and F and FIGS. 16D and 17B). To determine which extracellular Ig domains of Robo1 could recognize Rspo1, recombinant extracellular Ig domains 1-5 of Robo1 fused with glutathione S-transferase were constructed, expressed and purified (GST-Ig1-5; FIG. 15B and FIG. 16D).
For the pulldown assay, 3 μg of the appropriate purified GST-tagged fusion protein and isolated His-tagged fusion protein were incubated with 20 μl glutathione Sepharose beads (GE Healthcare Biosciences) in PBS containing 1% BSA at 4° C. for 2 h. […]

[3] = target: B1; assay: co-immunoprecipitation from mouse intestinal crypt lysates, immunoblot
Protocol: 293 cells were co-transfected with the plasmids of Robo1 or Robo1-dCC3 and LRP6. Transfected Robo1 was immunoprecipitated by the anti-HA Ab, followed by immunoblotting for LRP6 (myc) and Robo1 (HA). (L) LRP6 interacts with CC3. 293 cells transfected with the LRP6 plasmid were incubated with rCC0/1, rCC2 and rCC3. After washing, transfected LRP6 was immunoprecipitated by the anti-HA Ab, followed by immunoblotting for rCC0/1, rCC2 and rCC3 (His) and LRP6 (myc). (M) LRP6 M3 binds to CC3. The glutathione-Sepharose beads were incubated with the GST-M1-3. After washing, they were incubated with rCC3, followed by immunoblotting for rCC3 (His) and rGST-M1-3. (N and O) Transfected Robo1 enhances LRP6 binding to LGR5. 293 cells were co-transfected with the plasmids of LGR5 and LRP6, in the presence or absence of the Robo1 plasmid (N). Alternatively, 293 cells were co-transfected with the plasmids of LGR5, LRP6 and Robo1, followed by infection with Ad-GFP or Ad-CC3 (0). Lysates of these transfectants were immunoprecipitate for LRP6 (myc) and immunoblotted for LGR5 (flag), LRP6 (myc) and Robo1 (HA), respectively. (P) Endogenous Robo1 promotes LRP6 association with LGR5. […]
This example describes Rspo1 binds to extracellular Robo1. […] Indeed, the intestinal expression of Rspo1 was detected in the tissue sections of adult small intestine (FIG. 14). […]

[4] = target: T3, Recombinant human Robo1 encoding the extracellular five Ig-like domains fused with the Fc domains of human … (human, UniProt Q9Y6N7 26-540; P01857 99-330 = IgG part); assay: Protein A bead pulldown, immunoblot for His
T3 construct: domain: extracellular five Ig domains (1-1621 bp);domain: Fc domains of human IgG1; also called Robo1-Fc; rRobo1-Fc
Protocol: as §1

T3 sequence (Q9Y6N7 other isoform, or with tags, fused parts or gaps limits assumed): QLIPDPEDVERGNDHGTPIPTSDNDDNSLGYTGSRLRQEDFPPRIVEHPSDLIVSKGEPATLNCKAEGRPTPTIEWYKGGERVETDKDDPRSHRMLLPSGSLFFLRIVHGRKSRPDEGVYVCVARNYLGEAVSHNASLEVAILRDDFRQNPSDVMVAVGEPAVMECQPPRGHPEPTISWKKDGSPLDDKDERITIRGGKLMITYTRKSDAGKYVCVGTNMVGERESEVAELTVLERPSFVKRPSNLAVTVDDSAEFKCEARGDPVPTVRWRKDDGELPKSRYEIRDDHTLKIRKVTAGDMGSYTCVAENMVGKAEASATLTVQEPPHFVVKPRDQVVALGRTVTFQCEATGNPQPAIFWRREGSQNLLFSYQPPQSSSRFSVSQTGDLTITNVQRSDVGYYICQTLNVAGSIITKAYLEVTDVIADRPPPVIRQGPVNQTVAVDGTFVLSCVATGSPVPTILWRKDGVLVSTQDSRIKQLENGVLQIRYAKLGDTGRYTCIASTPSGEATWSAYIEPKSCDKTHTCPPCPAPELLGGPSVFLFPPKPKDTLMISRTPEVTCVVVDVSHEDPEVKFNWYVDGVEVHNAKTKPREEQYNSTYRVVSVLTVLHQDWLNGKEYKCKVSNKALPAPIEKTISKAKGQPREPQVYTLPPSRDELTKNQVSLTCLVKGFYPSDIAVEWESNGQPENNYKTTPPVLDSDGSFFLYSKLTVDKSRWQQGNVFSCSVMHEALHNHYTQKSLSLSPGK
T1 sequence (O88572 20-1613 limits assumed): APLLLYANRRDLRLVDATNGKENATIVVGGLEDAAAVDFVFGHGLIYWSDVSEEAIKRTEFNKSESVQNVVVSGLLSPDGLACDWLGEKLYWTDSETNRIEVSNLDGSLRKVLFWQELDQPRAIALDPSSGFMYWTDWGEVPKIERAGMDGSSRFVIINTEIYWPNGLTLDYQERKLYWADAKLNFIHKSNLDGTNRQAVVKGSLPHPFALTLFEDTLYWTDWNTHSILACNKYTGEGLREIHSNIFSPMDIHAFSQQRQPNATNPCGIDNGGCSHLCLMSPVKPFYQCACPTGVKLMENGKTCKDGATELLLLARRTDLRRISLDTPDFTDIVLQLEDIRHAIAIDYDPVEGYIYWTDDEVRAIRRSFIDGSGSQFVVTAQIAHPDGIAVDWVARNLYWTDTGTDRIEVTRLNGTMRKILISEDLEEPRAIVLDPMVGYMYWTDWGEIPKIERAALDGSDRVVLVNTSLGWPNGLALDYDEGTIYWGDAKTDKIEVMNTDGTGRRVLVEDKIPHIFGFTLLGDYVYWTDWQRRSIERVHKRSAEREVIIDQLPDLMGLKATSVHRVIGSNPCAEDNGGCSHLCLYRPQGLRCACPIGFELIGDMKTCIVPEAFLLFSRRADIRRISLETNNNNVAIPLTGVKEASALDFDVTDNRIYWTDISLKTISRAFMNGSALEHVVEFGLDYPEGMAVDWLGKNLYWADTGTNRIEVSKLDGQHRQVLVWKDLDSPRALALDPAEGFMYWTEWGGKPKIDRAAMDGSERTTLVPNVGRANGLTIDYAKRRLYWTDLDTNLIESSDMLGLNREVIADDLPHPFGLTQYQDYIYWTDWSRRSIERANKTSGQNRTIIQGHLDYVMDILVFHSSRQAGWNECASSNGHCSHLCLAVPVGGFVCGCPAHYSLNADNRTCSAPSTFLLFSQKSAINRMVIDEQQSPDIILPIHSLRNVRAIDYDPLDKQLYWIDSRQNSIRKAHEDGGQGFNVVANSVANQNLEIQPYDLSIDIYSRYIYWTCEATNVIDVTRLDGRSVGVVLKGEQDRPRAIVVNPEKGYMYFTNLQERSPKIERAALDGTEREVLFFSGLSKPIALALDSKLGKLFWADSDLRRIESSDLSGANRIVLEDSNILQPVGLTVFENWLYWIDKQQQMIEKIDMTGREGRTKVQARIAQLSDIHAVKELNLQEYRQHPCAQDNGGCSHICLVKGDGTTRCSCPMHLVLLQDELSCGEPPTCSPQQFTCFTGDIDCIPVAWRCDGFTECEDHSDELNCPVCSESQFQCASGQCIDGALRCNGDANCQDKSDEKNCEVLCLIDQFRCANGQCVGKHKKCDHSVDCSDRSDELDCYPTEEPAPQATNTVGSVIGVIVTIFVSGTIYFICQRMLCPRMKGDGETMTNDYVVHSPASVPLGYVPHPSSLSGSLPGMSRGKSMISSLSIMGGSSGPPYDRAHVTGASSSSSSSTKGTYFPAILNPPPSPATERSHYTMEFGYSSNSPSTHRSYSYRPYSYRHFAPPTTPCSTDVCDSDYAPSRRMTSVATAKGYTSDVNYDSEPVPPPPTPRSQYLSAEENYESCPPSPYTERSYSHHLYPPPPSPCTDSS

Q: Does B1 bind [1]?
A: Result: binds

B2: Extracellular Ig2 domain of Robo1 fused with GST (other, human, UniProt Q9Y6N7 170-257, looked up)
chain: DDFRQNPSDVMVAVGEPAVMECQPPRGHPEPTISWKKDGSPLDDKDERITIRGGKLMITYTRKSDAGKYVCVGTNMVGERESEVAELT
notes: domain: extracellular Ig2 domain; also called GST-Ig2; not shown: glutathione S-transferase of the PGEX6P1 vector
Q: Does B2 bind [2]?
A: Result: no binding

B3: Native Rspo1 of mouse small intestinal crypts (ligand, UniProt Q9Z132 21-265, looked up)
chain: SRGIKGKRQRRISAEGSQACAKGCELCSEVNGCLKCSPKLFILLERNDIRQVGVCLPSCPPGYFDARNPDMNKCIKCKIEHCEACFSHNFCTKCQEALYLHKGRCYPACPEGSTAANSTMECGSPAQCEMSEWSPWGPCSKKRKLCGFRKGSEERTRRVLHAPGGDHTTCSDTKETRKCTVRRTPCPEGQKRRKGGQGRRENANRHPARKNSKEPRSNSRRHKGQQQPQPGTTGPLTSVGPTWAQ
Q: Does B3 bind [3]?
A: Result: binds

B4: Carboxyl-terminal segment of Rspo1 including one TSR repeat, fused with 6-His tag (ligand, human, UniProt Q2MKA7 147-263, looked up)
chain: QCEMSEWSPWGPCSKKQQLCGFRRGSEERTRRVLHAPVGDHAACSDTKETRRCTVRRVPCPEGQKRRKGGQGRRENANRNLARKESKEAGAGSRRRKGQQQQQQQGTVGPLTSAGPA
notes: domain: carboxyl-terminus of Rspo1 containing one TSR repeat; also called rRspo1-C; Rspo1-C; not shown: 6-His tag of the PETM vector
Q: Does B4 bind [4]?
A: Result: no binding

B5: Extracellular Ig5 domain of Robo1 fused with GST (other, human, UniProt Q9Y6N7 455-541, looked up)
chain: PVIRQGPVNQTVAVDGTFVLSCVATGSPVPTILWRKDGVLVSTQDSRIKQLENGVLQIRYAKLGDTGRYTCIASTPSGEATWSAYIE
notes: domain: extracellular Ig5 domain; also called GST-Ig5; not shown: glutathione S-transferase of the PGEX6P1 vector
Q: Does B5 bind [2]?
A: Result: no binding
